T1: human LAG-3(ECD)-huFc (human, UniProt P18627 23-450)
T1 construct: also called Fc-tagged human LAG-3(ECD)-huFc; not shown: human Fc (huFc) at the C-terminus
T1 sequence: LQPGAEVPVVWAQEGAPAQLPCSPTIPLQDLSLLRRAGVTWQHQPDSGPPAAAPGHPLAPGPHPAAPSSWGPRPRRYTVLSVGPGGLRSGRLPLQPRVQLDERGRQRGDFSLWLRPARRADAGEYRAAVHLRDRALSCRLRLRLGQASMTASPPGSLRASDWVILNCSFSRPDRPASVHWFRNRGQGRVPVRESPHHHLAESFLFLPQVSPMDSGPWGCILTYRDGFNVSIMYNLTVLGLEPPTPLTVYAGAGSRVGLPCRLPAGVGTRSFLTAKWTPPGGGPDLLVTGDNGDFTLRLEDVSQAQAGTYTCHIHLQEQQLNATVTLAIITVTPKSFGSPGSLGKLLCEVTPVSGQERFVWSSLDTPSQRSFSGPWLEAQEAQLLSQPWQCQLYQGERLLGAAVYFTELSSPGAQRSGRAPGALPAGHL


Key:
human LAG-3(ECD)-huFc = target: T1, human LAG-3(ECD)-huFc; test: SPR (Biacore): mAb from hybridoma supernatant captured on anti-mouse IgG CM5 chip, human LAG-3(ECD)-huFc 50-400 nM injected
Description: Anti-mouse IgG antibodies were immobilized via amine coupling on CM5 chip surface. Anti-LAG-3 mAbs in hybridoma supernatants were captured on the chip surface and a series of concentrations (50-400 nM) of human LAG-3(ECD)-huFc protein were injected and passed through the captured surface. The on and off rates for antibody-antigen binding were measured, curve fitted and calculated.

B5/IgG4 = target: T2, B5/IgG4; test: ELISA peptide competition: peptide preincubated with B5/IgG4, competitor hLAG3-mFc; peptide at 600-fold hLAG3-mFc; capture on anti-human IgG, anti-mouse IgG-HRP
T2 construct: Chimeric: mouse VH and VL with human IgG4 heavy chain and kappa light chain constant regions; also called B5 (human IgG4 heavy chain and kappa light chain chimeric)
Description: (§1) FIGS. 5A-5D show the effect of competition peptides on LAG-3 binding to anti-LAG-3 mAbs. […] B5/IgG4 was preincubated with a competition peptide for 30 minutes. Then human LAG-3 extracellular domain (ECD) fused to mouse Fc (hLAG3-mFc) was added (the final peptide concentration was 600-fold that of hLAG3-mFc) and the mixture was incubated for 60 minutes before being added to an ELISA plate coated with anti-human IgG. The incubation was carried out at 4° C. overnight. After washing, the hLAG3-mFc bound to the immobilized B5/IgG4 on the ELISA plate was detected by adding anti-mouse IgG conjugated to horseradish peroxidase (HRP) and incubating for 60 minutes. Then, after washing, the ELISA was developed using One-step Detection Solution and measured as the absorbance at 450 nm.
(§2) Anti-human IgG in carbonate coating buffer was coated on an ELISA plate at 4° C. (50 μL/well at 1 μg/mL) overnight. In each well of a separate plate, a chimeric version of a given anti-LAG-3 mAb (50 μL/well at 1.4 nM) and a competition peptide (50 μL/well at various concentrations as indicated in the figures) were mixed and incubated for 30 minutes at room temperature. Then human LAG-3 extracellular domain (ECD) fused to mouse Fc (hLAG3-mFc) was added to each well (50 μL/well at 2 nM) and the final mixture was incubated at room temperature for 60 minutes before added to the ELISA plate (50 μL/well) for another 60-minute incubation. The final incubation after adding the mixture to the ELISA plate was also performed at 4° C. overnight in some assays. The plate was washed and the binding of hLAG3-mFc to the immobilized anti-LAG-3 mAb was detected by adding anti-mouse IgG conjugated to horseradish peroxidase ([…]) (ThermoFisher Scientific, Cat#: A16084; Waltham, Mass.) and incubating for 60 minutes.

[1] = target: T3, B12 (human IgG1 heavy chain and kappa light chain chimeric); test: ELISA peptide competition: peptide preincubated with chimeric IgG1 B12, competitor hLAG3-mFc; peptide at 600-fold hLAG3-mFc; capture on anti-human IgG, anti-mouse IgG-HRP
T3 construct: Chimeric: mouse VH and VL with human IgG1 heavy chain and kappa light chain constant regions
Description: as §1, §2

[2] = target: T4, BG29 (human IgG4 heavy chain and kappa light chain chimeric); test: ELISA peptide competition: peptide preincubated with chimeric IgG4 BG29, competitor hLAG3-mFc; peptide at 200-fold hLAG3-mFc; capture on anti-human IgG, anti-mouse IgG-HRP
T4 construct: Chimeric: mouse VH and VL with human IgG4 heavy chain and kappa light chain constant regions; also called chimeric BG29
Description: as §1, §2

B7/IgG4 = target: T5, B7/IgG4; test: ELISA peptide competition: peptide preincubated with B7/IgG4, competitor hLAG3-mFc; peptide at 600-fold hLAG3-mFc; final incubation 60 min at room temperature; anti-mouse IgG-HRP
T5 construct: Chimeric: mouse VH and VL with human IgG4 heavy chain and kappa light chain constant regions; also called B7 (human IgG4 heavy chain and kappa light chain chimeric)
Description: (§3) B5/IgG4 was preincubated with a competition peptide for 30 minutes. Then human LAG-3 extracellular domain (ECD) fused to mouse Fc (hLAG3-mFc) was added (the final peptide concentration was 600-fold that of hLAG3-mFc) and the mixture was incubated for 60 minutes before being added to an ELISA plate coated with anti-human IgG. The incubation was carried out at 4° C. overnight. After washing, the hLAG3-mFc bound to the immobilized B5/IgG4 on the ELISA plate was detected by adding anti-mouse IgG conjugated to horseradish peroxidase (HRP) and incubating for 60 minutes. Then, after washing, the ELISA was developed using One-step Detection Solution and measured as the absorbance at 450 nm.
The assay condition is the same as in FIG. 5A except that the final incubation of the mAb, the competition peptide, and hLAG3-mFc on the ELISA plate was performed at room temperature for 60 minutes instead of incubation at 4° C. overnight.
(§4) Anti-human IgG in carbonate coating buffer was coated on an ELISA plate at 4° C. (50 μL/well at 1 μg/mL) overnight. In each well of a separate plate, a chimeric version of a given anti-LAG-3 mAb (50 μL/well at 1.4 nM) and a competition peptide (50 μL/well at various concentrations as indicated in the figures) were mixed and incubated for 30 minutes at room temperature. Then human LAG-3 extracellular domain (ECD) fused to mouse Fc (hLAG3-mFc) was added to each well (50 μL/well at 2 nM) and the final mixture was incubated at room temperature for 60 minutes before added to the ELISA plate (50 μL/well) for another 60-minute incubation.

B4C = target: T6, B4C; test: ELISA peptide competition: peptide (1X, 10X, 50X) preincubated with chimeric IgG1 B4, competitor hLAG3-mFc; capture on anti-human IgG, anti-mouse IgG-HRP
T6 construct: Chimeric: mouse VH and VL fused to constant regions of human IgG1 heavy chain and kappa light chain; also called the chimeric version of mouse mAb B4; B4 (human IgG1 heavy chain and kappa light chain chimeric)
Description: as §3, with “Then” for “B5/IgG4 was preincubated with a competition peptide for 30 minutes. Then”
(§5) FIGS. 9A-9B show the effect of competition peptides on LAG-3 binding to anti-LAG-3 mAbs.
as §4, with “incubation. The final incubation after adding the mixture to the ELISA plate was also performed at 4° C. overnight in some assays.” for “incubation.”

B3C = target: T7, B3C; test: ELISA peptide competition: peptide (1X, 10X, 50X) preincubated with chimeric IgG1 B3, competitor hLAG3-mFc; capture on anti-human IgG, anti-mouse IgG-HRP
T7 construct: Chimeric: mouse VH and VL fused to constant regions of human IgG1 heavy chain and kappa light chain; also called the chimeric version of mouse mAb B3; B3 (human IgG1 heavy chain and kappa light chain chimeric)
Description: as §3, with “Then” for “B5/IgG4 was preincubated with a competition peptide for 30 minutes. Then”
as §5
as §4, with “incubation. The final incubation after adding the mixture to the ELISA plate was also performed at 4° C. overnight in some assays.” for “incubation.”

T2 sequence (VH, as listed by the source, chain 1 of 2): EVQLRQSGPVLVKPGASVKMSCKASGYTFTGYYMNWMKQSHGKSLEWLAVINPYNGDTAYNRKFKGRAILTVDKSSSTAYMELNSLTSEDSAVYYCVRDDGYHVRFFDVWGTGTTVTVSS
T2 sequence (VL, as listed by the source, chain 2 of 2): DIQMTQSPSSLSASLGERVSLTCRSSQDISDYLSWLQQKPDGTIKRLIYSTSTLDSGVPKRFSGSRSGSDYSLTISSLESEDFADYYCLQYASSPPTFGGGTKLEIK

binding result (B4C) | binding result (B3C) | Binder | further results
– | – | B11 (antibody, V domains shown, Mouse mAb from hybridoma; also called mouse anti-LAG-3 mAb B11) VH: EVQLQQSGPVLVRPGASVKMSCKASGYTFTNYYMNWVKQSHGKSLEWIGVINPYNGDIAYSQKFKGKATLTVDKSSSTAYMELKSLTSEDSAVYYCARDDGYYVYYFDCWGQGTTLTVSS VL: DIQMTQSPSSLSASLGERVSLTCRASQDIGGSLNWLQQKPDGTIKRLIYSTSTLDSGVPKRFSGSRSGSDYSLTISSLESEDFADYYCLQNANSPPTFGGGTKLEIK | Kd (human LAG-3(ECD)-huFc): 1.18 nM
– | – | GPPAAAPGHPLAPG (also called peptide 1-14) [1-14] | binding result (B5/IgG4): binds; binding result [1]: binds; binding result [2]: binds
– | – | B2 (antibody, V domains shown, Mouse mAb from hybridoma; also called mouse anti-LAG-3 mAb B2) VH: QVHLQQSGPQLVKPGASVKISCKASGYTFTDYYINWVKQRPGQGLEWIGWIFPGSGSTYYNEKFKGKATLTVDKSSSTAYMLLSSLTSEDSAVYFCVRIHFDYDWFFDVWGTGTTVTVSS VL: DVVMTQTPLSLPVSLGDQASISCRSSQSIVHSNGNTYFYWYLQKPGQSPNLLIYRVSNRFSGVPDRFSGSGSGTDFTLKISRVEAEDMGVYYCFQGTHVPYTFGGGTKLEIK | Kd (human LAG-3(ECD)-huFc): 4.09 nM
binds | binds | PHPAAPSSWGPRPRRY (also called peptide 15-30) [15-30] | binding result (B7/IgG4): binds
binds | binds | PGPHPAAPSSWG (also called peptide 13-24) [13-24] | –
no binding (tested: 50X peptide) | no binding (tested: 50X peptide) | PGHPLAPGPHPAAPSS (also called peptide 7-22) [7-22] | –
– | – | PPAAAPGHPLAPG (also called peptide 2-14) [2-14] | binding result (B5/IgG4): binds; binding result [1]: binds; binding result [2]: binds
– | – | B7 (antibody, V domains shown, Mouse mAb from hybridoma; also called mouse anti-LAG-3 mAb B7) VH: EFQLQQSGPELVKPGASVKISCKASGYSFSDYNLNWVKQSNGKTLEWIGLINLDSAATVYNQKFKGKATLTIDQSSTTAYMQLNSLTSDDSAVYYCASYDYWGQGTTLTVSS VL: DIQMTQSPSSLSASLGERVSLSCRASQDISHYLNWFQQKPDGTFKRLIYETSTLDFGVPKRFSGSRSGSDYSLTIGSLESEDFADYYCLQYATYPLTFGAGTKLELK | Kd (human LAG-3(ECD)-huFc): 0.758 nM
– | – | B10 (antibody, V domains shown, Mouse mAb from hybridoma; also called mouse anti-LAG-3 mAb B10) VH: EFQLQQSGPELVKPGASVKISCKASGYSFTDYNLNWVKESNGKSLEWIGLITLDYGTTIYNQKFKGKATLTVDQSSSIAYMQLNSLTSDDSAVYYCACYDYWGQGTTLTVSS VL: DIQMTQSPSSLSASLGERVSLTCRASQDISNYLNWFQQKPDGTFKRLIYATSTLDFGVPKRFSGSRSGSDYSLTISSLESEDFADYYCLQYASYPLTFGAGTKLELK | Kd (human LAG-3(ECD)-huFc): 1.1 nM
– | – | GPPAAAPGHPLAPGPHPAAPSSWGPRPRRY (also called peptide 1-30) [1-30] | binding result (B7/IgG4): binds; binding result [2]: binds
binds | binds | GPHPAAPSSWG (also called peptide 14-24) [14-24] | –
– | – | GPPAAAPGHPLAP (also called peptide 1-13) [1-13] | binding result (B5/IgG4): binds; binding result [2]: binds
binds | binds | LAPGPHPAAPSSWG (also called peptide 11-24) [11-24] | –
binds | binds | PGHPLAPGPHPAAPSSW (also called peptide 7-23) [7-23] | –
binds | binds | APGPHPAAPSSWG (also called peptide 12-24) [12-24] | –
binds | binds | HPAAPSSWGPRPRRY (also called peptide 16-30) [16-30] | binding result (B7/IgG4): binds
